Data from US20120231013A1 (Amgen, published 2012).
Changes are numbered by the printed parent chain. Several values for one entry are separate records, joined by “and”; a condition that tells them apart may be missing. Equal entries are not always repeated.

T1: recombinant mouse TIMP-3 (mouse, UniProt P39876 24-211)
T1 construct: also called MuTIMP-3
T1 sequence (looked up): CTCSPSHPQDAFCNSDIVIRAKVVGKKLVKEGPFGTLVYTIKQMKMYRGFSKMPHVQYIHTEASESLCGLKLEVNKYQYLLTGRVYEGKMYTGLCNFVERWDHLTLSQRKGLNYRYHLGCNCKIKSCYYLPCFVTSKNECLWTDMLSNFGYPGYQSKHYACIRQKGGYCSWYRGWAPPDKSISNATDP

B1: LRP-1 peptide LA5-7 (peptide)
chain: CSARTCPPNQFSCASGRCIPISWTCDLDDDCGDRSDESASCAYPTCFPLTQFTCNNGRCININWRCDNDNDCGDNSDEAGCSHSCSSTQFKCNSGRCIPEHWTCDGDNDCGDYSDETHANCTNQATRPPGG
notes: Tags implied (Ni-NTA, anti-HA detection), not described
B2: recombinant human TIMP-3 (other, UniProt P35625 24-211, looked up)
chain: T1 sequence (looked up) with S51T, E87D, H103Q, S183I
B3: LRP-1 peptide LA24-26 (peptide)
chain: not shown
notes: The end 3574 is inferred from the end of LA26
B4: LRP-1 peptide LA3-5 (peptide)
chain: not shown
notes: as for B1

How the values were obtained:
recombinant human TIMP-3 [1] = target: B2; assay: direct ELISA, coated huTIMP-3
Method: (§1) After incubation, the coating solution is removed and replaced with 250 microL/well of blocking buffer (1% BSA, TBS [pH 7.5], 1 mM CaCl₂) and incubated with shaking for 1 hour at room temperature. The plates are then washed three times with 200 microL/well with wash buffer 1 (TBS [pH 7.5], 1 mM CaCl₂). The LRP-1 peptides are titrated in assay buffer (0.1% BSA, TBS [pH 7.5], 1 mM CaCl₂, 0.02% Tween-20) in a separate polypropylene non-treated round-bottom 96-well plate (BD Falcon™) starting at 1 microM concentration and then diluted serially 4-fold for 8-points, with the last point buffer only. Then 100 microL/well of the diluted LRP-1 peptide titration is added to the TIMP-3 coated plate and allowed to bind for 1.5 hour at room temperature with shaking. After incubation, the plate is washed three times with 200 microL/well of wash buffer 2 (TBS [pH 7.5], 1 mM CaCl₂, 0.02% Tween-20). […] The assay plate is then washed three times with 200 microL/well with wash buffer 2. The plate is developed by adding 100 microL/well of 1:1 mixture of TMB and H₂O₂ (Pierce, Fisher Thermo Scientific, Rockford Il.), the reaction is stopped by adding 100 microL/well 2NH₂SO₄ (VWR), and read on a SpectraMax microplate reader (Molecular Devices, Sunnyvale, Calif.) at OD450 nm using SOFTmax Pro software version 3.1.2. Data is analyzed using GraphPad Prism 4.01 software. Binding of LRP-1 peptides to TIMP-3 is expressed as binding EC50.

[2] = target: T2, recombinant TIMP-3 (human or mouse; Table 2 does not say which); assay: binding ELISA, Assay 3
T2 construct: The methods say 'human or mouse TIMP-3'

[3] = target: T2, recombinant TIMP-3 (human or mouse; …); assay: AlphaScreen, biotinylated TIMP-3, Assay 2
Method: (§2) Peptides were also evaluated by AlphaScreen® (Amplified Luminescent Proximity Homogeneous Assay; PerkinElmer, Waltham, Mass.) a very sensitive non-radioactive homogeneous assay technology that allows the screening of a large range of biological interactions and activities, substantially according to the manufacturer's instructions. Briefly, all dilutions are made in AlphaScreen® Buffer: [40 mM HEPES pH 7.5, 100 mM NaCl, 1 mM CaCl2, 0.1% BSA, 0.05% Tween-20]. The LRP-1 peptides are titrated in a separate polypropylene 96-well plate (Falcon) starting at 4 microM concentration and then diluted serially 3-fold for 12-points, with the last point buffer only. First 2 microL/well of protein titration curve is added to white, small volume, 384-well assay plate (Greiner Bio-One, Stonehouse, UK) in duplicate. Next, 2 microL of biotinylated (AFS, in-house conjmicroGation) recombinant human or mouse TIMP-3, is added at 12 nM (or 3 nM final assay concentration) to the assay plate. Lastly, in subdued light 4 microL of a mixture of streptavidin donor beads, anti-mouse IgG acceptor beads (PerkinElmer) both diluted to 20 microG/mL (10 microG/mL final assay concentration) and 2 nM (1 nM final concentration) rat-anti-HA (clone3F10)-HRP (Roche Diagnostics) is added to the plates. Plates containing 8 microL final assay volme are covered with TopSeal A (to prevent evaporation), spun quickly at 1000 rpm, and incubated overnight (covered with foil to prevent light exposure) before reading on Fusion plate reader (PerkinElmer) using AlphaScreen® parameters (excitation 680 nm and emission 520-620 nm). Data is analyzed using GraphPad Prism 4.01 software. Binding to TIMP-3 is reported as total signal (cps).

[4] = target: T2, recombinant TIMP-3 (human or mouse; …); assay: binding ELISA, Assay 1
recombinant human TIMP-3 [5] = target: B2; assay: indirect ELISA, huTIMP-3 captured by anti-TIMP-3 clone 277128
Method: Then 100 microL/well of the diluted LRP-1 peptide titration is added to the TIMP-3 coated plate and allowed to bind for 1.5 hour at room temperature with shaking. After incubation, the plate is washed three times with 200 microL/well of wash buffer 2 (TBS [pH 7.5], 1 mM CaCl₂, 0.02% Tween-20). […] The assay plate is then washed three times with 200 microL/well with wash buffer 2. The plate is developed by adding 100 microL/well of 1:1 mixture of TMB and H₂O₂ (Pierce, Fisher Thermo Scientific, Rockford Il.), the reaction is stopped by adding 100 microL/well 2NH₂SO₄ (VWR), and read on a SpectraMax microplate reader (Molecular Devices, Sunnyvale, Calif.) at OD450 nm using SOFTmax Pro software version 3.1.2. Data is analyzed using GraphPad Prism 4.01 software. Binding of LRP-1 peptides to TIMP-3 is expressed as binding EC50.
After incubation, the plate contents are discarded and 250 microL/well of blocking buffer (1% BSA, TBS [pH 7.5], 1 mM CaCl₂) is added to the plate which is incubated with shaking for 1 hour at room temperature. The plate is then washed three times with 200 microL/well with wash buffer 1 (TBS [pH 7.5], 1 mM CaCl₂) followed by the addition of 100 microL of 20 nM recombinant human TIMP-3. The plate is incubated at room temperature for 1 hour. The LRP-1 peptides are titrated as described previously, and 100 microL/well of the diluted LRP-1 peptide titration is added to the TIMP-3 coated plate and allowed to bind for 1.5 hour at room temperature with shaking. After incubation, the plate is washed and the ELISA performed substantially as described previously for the direct binding ELISA.

recombinant mouse TIMP-3 = target: T1, recombinant mouse TIMP-3; assay: direct ELISA, coated muTIMP-3
Method: as §1

[6] = target: T2, recombinant TIMP-3 (human or mouse; …); assay: AlphaScreen, biotinylated TIMP-3, Assay 1
Method: as §2

recombinant human TIMP-3 [7] = target: B2; assay: cell-based or functional assay
MMP-13 [8] = target: T3, MMP-13 (UniProt P45452 20-471, limits assumed); assay: cell-based or functional assay
MMP-13 [9] = target: T3, MMP-13; assay: cell-based or functional assay; remark: listed apart in the source
[10] = target: T2, recombinant TIMP-3 (human or mouse; …); assay: binding ELISA, Assay 2

EC50 (recombinant human TIMP-3 [1]) | EC50 [2] | total signal (cps) [3] | EC50 [4] | EC50 (recombinant human TIMP-3 [5]) | EC50 (recombinant mouse TIMP-3) | total signal (cps) [6] | % of the inhibitory activity of TIMP-3 + peptide compared to TIMP-3 alone, 16 nM (recombinant human TIMP-3 [7]) | % of the inhibitory activity of TIMP-3 + peptide compared to TIMP-3 alone, 80 nM (recombinant human TIMP-3 [7]) | % of the inhibitory activity of TIMP-3 + peptide compared to TIMP-3 alone, 400 nM (recombinant human TIMP-3 [7]) | % of the inhibitory activity of TIMP-3 + peptide compared to TIMP-3 alone, 2000 nM (recombinant human TIMP-3 [7]) | Direct Inhibition of MMP13 (% decrease), 1000 nM (MMP-13 [8]) | IC50 of TIMP-3 inhibition of MMP-13 (fluorogenic substrate) (MMP-13 [9]) | EC50 [10] | Binder
94 nM | 350 nM | 8000 cps | 210 nM | 9 nM | 74 nM | 2000 cps | 101% | 99% | 93% | 68% | 2% |  |  | B1
 |  |  |  |  |  |  |  |  |  |  |  | 0.5 to 1 nM |  | B2
28 nM | 68 nM | 120000 cps | 46 nM and 26 nM | 8 nM | 15 nM | 150000 cps | 92% | 95% | 105% |  | 59% |  | 80 nM | B3
78 nM | 214 nM | 9000 cps | 52.5 nM | 8 nM | 71 nM | 4000 cps | 104% | 101% |  | 101% | 2% |  |  | B4
